The target of assay [1] is T1, rHuman ErbB2/Fc Chimera, CF (R&D Systems Cat#1129-ER) (human, UniProt P04626 23-652).
T1 construct: Bought recombinant protein; not shown: Fc of the bought chimera
The assay is described as follows: MSD ECL multispot assay, antigen spotted on plate, Fab in solution; blank spot of this row 348.

The target of assay [2] is T2, rHuman Notch-1/Fc Chimera, CF (R&D Systems Cat#3647-TK) (human, UniProt P46531 19-526).
T2 construct: Bought recombinant protein; not shown: Fc of the bought chimera
The assay is described as above.

For assay [3], the target named is T3, Recombinant Human DLL4 (R&D Systems Cat#1506-D4/CF) (human, UniProt Q9NR61 27-524).
T3 construct: Bought recombinant protein; also called delta-like protein 4; rHuman DLL4
Described as above.

The target of assay [4] is T4, rHuman EGF R/Fc Chimera, CF (R&D Systems Cat#344-ER) (human, UniProt P00533 25-645).
T4 construct: Bought recombinant protein; not shown: Fc of the bought chimera
The description is as above.

For assay [5], the target named is T5, rHuman Erythropoietin R/Fc Chimera, CF (R&D Systems Cat#963-ER) (human, UniProt P19235 25-250).
T5 construct: Bought recombinant protein; also called EPO R; EPO R/Fc; not shown: Fc of the bought chimera
T5 sequence (looked up): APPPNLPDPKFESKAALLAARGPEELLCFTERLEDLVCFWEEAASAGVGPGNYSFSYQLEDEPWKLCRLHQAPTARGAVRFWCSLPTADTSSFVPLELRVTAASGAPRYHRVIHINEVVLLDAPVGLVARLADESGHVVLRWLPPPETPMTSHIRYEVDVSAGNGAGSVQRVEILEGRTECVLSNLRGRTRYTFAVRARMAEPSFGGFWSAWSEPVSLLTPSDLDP
The description is as above.

Assay [6] deals with T6, rHuman CD44/Fc Chimera, CF (R&D Systems Cat#3660-CD) (human, UniProt P16070 21-220).
T6 construct: Bought recombinant protein; not shown: Fc of the bought chimera
The assay is described as above.

For assay [7], the target named is T7, rHuman IGF-1 sR (insulin-like growth factor-1 soluble receptor), CF (R&D Systems Cat#391-GR) (human, UniProt P08069 31-932).
T7 construct: Bought recombinant soluble receptor
Described as above.

Assay [8] deals with T8, rHuman HGF R/c-MET/Fc Chimera, CF (R&D Systems Cat#358-MT/CF) (human, UniProt P08581 25-932).
T8 construct: Bought recombinant protein; also called HGF R/Fc; not shown: Fc of the bought chimera
Described as above.

Assay [9] addresses T1, rHuman ErbB2/Fc Chimera, CF (R&D …). Kind of assay: MSD ECL multispot assay, antigen spotted on plate, Fab in solution; blank spot of this row 504.
For assay [10], the target named is T2, rHuman Notch-1/Fc Chimera, CF (R&D …). Described as above.
For assay [11], the target named is T3, Recombinant Human DLL4 (R&D Systems …). Described as above.
Assay [12] addresses T4, rHuman EGF R/Fc Chimera, CF (R&D …). The assay is described as above.
Assay [13] deals with T5, rHuman Erythropoietin R/Fc Chimera, CF …. Described as above.
Assay [14] has as its target T6, rHuman CD44/Fc Chimera, CF (R&D Systems …). Described as above.
For assay [15], the target named is T7, rHuman IGF-1 sR (insulin-like growth …). Described as above.
In assay [16] the target is T8, rHuman HGF R/c-MET/Fc Chimera, CF (R&D …). The assay is described as above.
Assay [17] deals with T9, rHuman CD44/Fc Chimera, CF (R&D Systems Cat#3660-CD) (human, UniProt P16070 21-220).
T9 construct: Bought recombinant Fc chimera; Fc part of the bought chimera not given
The assay is described as follows: ECL Multispot (MSD) binding assay, antigen spotted on plate, Fab in solution.

Assay [18] deals with T10, rHuman ErbB2/Fc Chimera, CF (R&D Systems Cat#1129-ER) (human, UniProt P04626 23-652).
T10 construct: Bought recombinant Fc chimera; also called human epidermal growth factor 2 receptor; Fc part of the bought chimera not given
Described as above.

For assay [19], the target named is T11, Recombinant Human DLL4 (R&D Systems Cat#1506-D4/CF) (human, UniProt Q9NR61 27-524).
T11 construct: Bought recombinant human DLL4; also called delta-like protein 4; Delta-like 4
The description is as above.

In assay [20] the target is T12, rHuman IGF-1 sR, CF (R&D Systems Cat#391-GR) (human, UniProt P08069 31-932).
T12 construct: Bought recombinant soluble receptor; also called insulin-like growth factor-1 soluble receptor
The description is as above.

The target in assay [21] is T13, rHuman Notch-1/Fc Chimera, CF (R&D Systems Cat#3647-TK) (human, UniProt P46531 19-526).
T13 construct: Bought recombinant Fc chimera; Fc part of the bought chimera not given
The assay is described as above.

Assay [22] addresses T14, rHuman P-Cadherin/Fc Chimera, CF (R&D Systems Cat#861-PC) (human, UniProt P22223 108-654).
T14 construct: Bought recombinant Fc chimera; Fc part of the bought chimera not given
The assay is described as above.

In assay [23] the target is T15, rHuman Erythropoietin R/Fc Chimera, CF (R&D Systems Cat#963-ER) (human, UniProt P19235 25-250).
T15 construct: Bought recombinant Fc chimera; also called EPO R; EPO R/Fc; Fc part of the bought chimera not given
T15 sequence (looked up): T5 sequence (looked up)
The description is as above.

Assay [24] has as its target T16, rHuman EGF R/Fc Chimera, CF (R&D Systems Cat#344-ER) (human, UniProt P00533 25-645).
T16 construct: Bought recombinant Fc chimera; also called epidermal growth factor receptor; Fc part of the bought chimera not given
The description is as above.

For assay [25], the target named is T17, rHuman HGF R/c-MET/Fc Chimera, CF (R&D Systems Cat#358-MT/CF) (human, UniProt P08581 25-932).
T17 construct: Bought recombinant Fc chimera; also called HGF R/Fc; hepatocyte growth factor receptor; Fc part of the bought chimera not given
The description is as above.

Assay [26] concerns the target T18, rHuman HGF R/c-MET/Fc Chimera, CF (R&D Systems Cat#358-MT/CF) (human, UniProt P08581 25-932).
T18 construct: Bought reagent; also called HGF R/Fc; hepatocyte growth factor receptor
The assay is described as follows: ECL Multispot (MSD) assay; antigen spotted on plate, Fab in solution.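 Also: fab bound 1 h at 20 °C, detected by TAG-labelled antibody electrochemiluminescence, signal relative to each well's blank, ratio of 4 or more marks a hit.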

Assay [27] has as its target T19, rHuman CD44/Fc Chimera, CF (R&D Systems Cat#3660-CD) (human, UniProt P16070 21-220).
T19 construct: Bought reagent
The assay is described as above.

The target in assay [28] is T20, rHuman P-Cadherin/Fc Chimera, CF (R&D Systems Cat#861-PC) (human, UniProt P22223 108-654).
T20 construct: Bought reagent
Described as above.

Assay [29] addresses T21, Recombinant Human DLL4 (R&D Systems Cat#1506-D4/CF) (human, UniProt Q9NR61 27-524).
T21 construct: Bought recombinant protein; also called delta-like protein 4; rHuman DLL4
The assay is described as above.

Assay [30] deals with T22, rHuman Notch-1/Fc Chimera, CF (R&D Systems Cat#3647-TK) (human, UniProt P46531 19-526).
T22 construct: Bought reagent
The assay is described as above.

The target in assay [31] is T23, rHuman Erythropoietin R/Fc Chimera, CF (R&D Systems Cat#963-ER) (human, UniProt P19235 25-250).
T23 construct: Bought reagent; also called EPO R; Epo R/Fc
T23 sequence (looked up): T5 sequence (looked up)
The description is as above.

The target in assay [32] is T24, rHuman ErbB2/Fc Chimera, CF (R&D Systems Cat#1129-ER) (human, UniProt P04626 23-652).
T24 construct: Bought reagent; also called human epidermal growth factor 2 receptor
The assay is described as above.

The target of assay [33] is T25, rHuman EGF R/Fc Chimera, CF (R&D Systems Cat#344-ER) (human, UniProt P00533 25-645).
T25 construct: Bought reagent; also called epidermal growth factor receptor
The description is as above.

Assay [34] concerns the target T26, rHuman IGF-1 sR, CF (R&D Systems Cat#391-GR) (human, UniProt P08069 31-932).
T26 construct: Bought soluble receptor; the column head 'IGF-1' means IGF-1 sR; also called insulin-like growth factor-1 soluble receptor
The description is as above.

Substitutions are numbered along the chain they refer to. In names and notes the source's numbering stands.

B1: Fab VH1-46_IGHD6-6*01_IGHJ1*01 S102A/S103P/S104F/H111F (APFF) & L6_IGKJ1*01 S92C (Fab, V domains shown)
VH: QVQLVQSGAEVKKPGASVKVSCKASGYTFTSYYMHWVRQAPGQGLEWMGIINPSGGSTSYAQKFQGRVTMTRDTSTSTVYMELSSLRSEDTAVYYCAREEYAPFSAEYFQFWGQGTLVTVSS
VL: EIVLTQSPATLSLSPGERATLSCRASQSVSSYLAWYQQKPGQAPRLLIYDASNRATGIPARFSGSGSGTDFTLTISSLEPEDFAVYYCQQRCNWPPWTFGQGTKVEIKR
notes: Fab; also called APFF / S92C
On to B1, for which the ECL signal in assay [1] was found to be 425; in [2] it was 439; in assay [3], 1340; in assay [4] it was 452; in assay [5] it was 601; in assay [6], 458. The ECL signal worked out at 471 in assay [7]; 472 in [8]; 573 in [9]; 611 in [10]; 1260 in assay [11]; 638 in assay [12]. Also, the ECL signal in [13] came to 845; in [14], 646; in assay [15] it was 666; in assay [16] it was 616.

B2: Fab VH1-46_IGHD6-6*01_IGHJ1*01 S102A/S103P/S104F/H111F (APFF) & L6_IGKJ1*01 S92G (Fab, V domains shown)
VH: B1 VH
VL: B1 VL with C92G
notes: Tested as a Fab made in E. coli; also called APFF / S92G; H:APFF & L6_IGKJ1*01 S92G
For B2, the ECL signal was 413 in assay [17]; 377 in assay [18]; 91400 in assay [19]; 323 in assay [20]; 541 in assay [21]; 402 in assay [22]. The results for the ECL signal in [23], in assay [24] and in assay [25] were 543, 420 and 287, respectively.

B3: Fab VH1-46_IGHD6-6*01_IGHJ1*01 S102A/S103P/S104F (APF) & L6_IGKJ1*01 Y32S (Fab, V domains shown)
VH: B1 VH with F111H
VL: B1 VL with Y32S, C92S
notes: Fab format as for the parent (CH1 with His6/Flag tags, kappa CL); also called APF / Y32S
In the case of B3, the ECL signal came to 222 in [26]; 162 in assay [27]; 51 in assay [28]; 1030 in assay [29]; 137 in assay [30]; 230 in [31]. For the same molecule, the ECL signal in [32] is 154; in assay [33], 208; in [34], 175.

(Values after US20120316071A1 (published 2012).)
